We go through seven molecules from patent publication US20120093811A1 (published 2012).

Residue numbers refer to the chain shown, from its start.

The chains are these.
B1: humanized IgG antibody derived from clone F61 (antibody, V domains shown)
VH: QVQLVQSGAEVKQPGASVKVSCKASGYTFTGYNMYWVRQAPGQGLEWMGYIDPYNGDTTYNQKFKGRVTMTTDTSTSTAYMKLRSLRSDDTAVYYCARTSYYGGMDYWGRGTLVTVAS
VL: DIVMTQTPLSSPVTLGQPASISCRSSQSLVHSNGNTYLHWLQQRPGQPPRLLIYKVSNRFSGVPDRFSGSGAGTDFTLKISRVEAEDVGVYYCSQSTHVPRTFGQGTKLEIKR
notes: IgG
B2: humanized IgG antibody derived from clone A63 (antibody, V domains shown)
VH: B1 VH with E10K, V20A, K82E
VL: B1 VL
notes: IgG
B3: humanized IgG antibody derived from clone AW61 (antibody, V domains shown)
VH: B1 VH with V68A
VL: B1 VL
notes: IgG
B4: humanized IgG antibody derived from clone DI26 (antibody, V domains shown)
VH: B1 VH with E10K, V20A, N55S, K82E
VL: B1 VL
notes: IgG
B5: humanized IgG antibody derived from clone HH41 (antibody, V domains shown)
VH: B1 VH
VL: B1 VL with S32G
notes: IgG; also called HH41#1; HH41#2
B6: humanized IgG antibody derived from clone HW78 (antibody, V domains shown)
VH: B1 VH with S25R, S77G
VL: B1 VL
notes: IgG
B7: humanized IgG antibody derived from clone HH69 (antibody, V domains shown)
VH: B1 VH with E10K, V20A, N55S, K82E
VL: B1 VL with S11G, Q105R
notes: IgG

The target in the first assay is T1, Source 2 VEGF-D, purified recombinant human VEGF-D monomer (R&D Systems, Catalog Number 622-VD/CF) (human, UniProt O43915 93-201).
T1 construct: Bought protein; Whole entry named; also called Source 2 VEGF-D Monomer
T1 sequence: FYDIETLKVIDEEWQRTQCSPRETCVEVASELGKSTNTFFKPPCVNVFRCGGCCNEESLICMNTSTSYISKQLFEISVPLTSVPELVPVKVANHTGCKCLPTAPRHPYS
The assay can be described thus: SPR, IgG captured by anti-human IgG (Fc), Source 2 VEGF-D monomer as analyte. (SPR reads the build-up and loss of mass on a sensor chip optically.)
A word on the Kd: it is a measure of binding affinity in units of concentration. As usually defined, the koff is a measure of how fast the partners let go of each other. For B1, the Kd is 5000 pM and the koff amounted to 0.00824 s⁻¹.

Broadly, the kon is the rate constant with which the complex forms. B2: the Kd amounted to 7000 pM, the koff worked out at 0.00677 s⁻¹ and the kon is 970000 M⁻¹ s⁻¹.

As to B3, the Kd stood at 4100 pM and the koff was 0.00725 s⁻¹.

For B4, the Kd turned out to be 4100 pM, the koff amounted to 0.0041 s⁻¹ and the on-rate (kon) came to 1e+06 M⁻¹ s⁻¹.

The target of the next assay is T2, Source 1 VEGF-D, mature dimeric recombinant human VEGF-D (CSIRO) (human, UniProt O43915 89-205).
T2 sequence: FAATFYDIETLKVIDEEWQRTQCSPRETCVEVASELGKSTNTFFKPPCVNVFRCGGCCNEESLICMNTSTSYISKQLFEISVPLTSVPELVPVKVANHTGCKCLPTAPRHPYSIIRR
The assay can be described thus: cell-based or functional assay.
Take B1: the “rank in the VEGFR-3-Ba/F3 bioassay” value turned out to be 5 rank.

Regarding B5, the “rank in the VEGFR-3-Ba/F3 bioassay” value was determined as 8 rank.

In the case of B6, the “rank in the VEGFR-3-Ba/F3 bioassay” value was 4 rank.

Consider B3, for which the “rank in the VEGFR-3-Ba/F3 bioassay” value is 6 rank.

Take B4: the “rank in the VEGFR-3-Ba/F3 bioassay” value is 2 rank.

Consider B7, for which the “rank in the VEGFR-3-Ba/F3 bioassay” value turned out to be 3 rank.

A further assay has as its target T1, Source 2 VEGF-D, purified recombinant …. The assay can be described thus: cell-based or functional assay.
As for B1, the “rank in the VEGFR-3-Ba/F3 bioassay” value turned out to be 8 rank.

As to B5, the “rank in the VEGFR-3-Ba/F3 bioassay” value was determined as 6 rank.

Take B6: the “rank in the VEGFR-3-Ba/F3 bioassay” value came out at 7 rank.

Turning to B3, the “rank in the VEGFR-3-Ba/F3 bioassay” value was found to be 4 rank.

Regarding B4, the “rank in the VEGFR-3-Ba/F3 bioassay” value turned out to be 2 rank.

As to B7, the “rank in the VEGFR-3-Ba/F3 bioassay” value was 3 rank.

In the next assay the target is T2, Source 1 VEGF-D, mature dimeric …. The assay can be described thus: SPR Protocol B: VEGF-D dimer amine-coupled, IgG as analyte. The procedure:
(§1) Protocol B: In the second assay format, Protocol B, the orientation of the IgGs and the VEGF-D antigen was reversed relative to Protocol A. The Source 1 VEGF-D dimer was immobilized directly on the chip surface by amine coupling and the murine anti-VEGF-D monoclonal antibody, Ig-1A or IgG variants flowed over this surface as analytes at concentrations of 4 nM, 1.33 nM, and 0.44 nM. This protocol allowed avidity effects to be controlled by reducing the density of dimeric VEGF-D immobilized on the chip and in effect reduce the bivalent binding properties of the system being analyzed.
(§2) All four flow cells on a CM5 chip were activated for 7 min at 25° C. using a mixture of NHS.EDC. Flow cell one was used as an unmodified (activated and blocked) reference against flow cells 2-4. Source 1 VEGF-D dimer was diluted to 1-3 μg/ml into 10 mM sodium acetate, pH 4, and injected over three surfaces for different lengths of time to achieve low ligand densities of 10, 15 and 20 RU to minimize avidity effects of the IgG. All surfaces were blocked for 7 min with ethanolamine (1M, pH 8.2) and pre-conditioned using five 10 s injections of 100 mM H₃PO₄; 1M NaCl. Immobilization steps were carried out at a flow rate of 30 μl/min using HBS-N running buffer.
(§3) All IgG binding experiments were performed at 25° C. using HBS-EP+ running buffer. Analytes (murine reference anti-VEGF-D monoclonal antibody and humanized variants) were injected for 200 s at a flow rate of 70 μl/min and dissociation monitored for 250 s. The antigen surfaces were regenerated with a 10 s pulse of 100 mM H₃PO₄; 1M NaCl. Analyte concentrations used for murine and humanized variants were 4 nM, 1.33 nM, and 0.44 nM. Data was processed using the reference surface and double referencing from blank injections. Binding constants for the IgG/antigen interactions were determined from the three antigen surfaces globally fitted to a 1:1 interaction model. Refractive index parameter was constant (RI=0).
Regarding B5, the Kd amounted to 360 pM, the koff was 0.0017 s⁻¹ and the kon was 4.7e+06 M⁻¹ s⁻¹.

On to B6, for which the dissociation constant Kd was determined as 320 pM, the koff was 0.0018 s⁻¹ and the kon is 5.4e+06 M⁻¹ s⁻¹.

On to B4, for which the Kd was determined as 880 pM, the koff was determined as 0.0012 s⁻¹ and the kon is 1.3e+06 M⁻¹ s⁻¹.

As for B7, the Kd was determined as 330 pM, the koff came out at 0.001 s⁻¹ and the kon came out at 3e+06 M⁻¹ s⁻¹.

A further assay shares this target. As to the kind of experiment: SPR Protocol B, KD against that of Ig-1A. As to the method: as §1, §2, §3
For the molecule B5, the “Fold-improvement with respect to Ig-1A” value was determined as 4.9 fold.

For B6, the “Fold-improvement with respect to Ig-1A” value came to 5.5 fold.

On to B4, for which the “Fold-improvement with respect to Ig-1A” value came out at 2 fold.

On to B7, for which the “Fold-improvement with respect to Ig-1A” value is 5.3 fold.

A further assay concerns the target T1, Source 2 VEGF-D, purified recombinant …. As to the kind of experiment: SPR, KD against that of Ig-1A.
Consider B1, for which the “Fold-improvement with respect to Ig-1A” value was found to be 1.8 fold.

As for B2, the “Fold-improvement with respect to Ig-1A” value stood at 1.3 fold.

B3: the “Fold-improvement with respect to Ig-1A” value worked out at 2.2 fold.

On to B4, for which the “Fold-improvement with respect to Ig-1A” value came to 2.2 fold.

The next assay concerns the target T2, Source 1 VEGF-D, mature dimeric …. The assay can be described thus: SPR Protocol A, KD against that of Ig-1A. The procedure:
(§4) Protocol A: The first assay format, Protocol A, used an assay system where IgGs were captured on a biosensor chip surface using an anti-human IgG (Fc) antibody and the Source 1 VEGF-D dimer run over the chip as the analyte in solution. This ensured that all IgG molecules were presented to the antigen in an active orientation.
(§5) The SPR protocol was slightly modified to compensate for the dimeric nature of the VEGF-D. Ig-1A or IgG variants were analyzed using an anti-human capture kit as described for Anti-human IgG (Fc) capture above, except that 1000 RU of the IgG or IgG variant was captured on the anti-human chip surface. […] The kinetics generated using this approach are accurate within the experimental parameters set. This standard assay protocol is best suited to studying 1:1 interactions and thus, may not be ideal for analyzing binding between the IgG variants and the VEGF-D dimer. In light of this, Protocol B was also used.
As to B5, the “Fold-improvement with respect to Ig-1A” value was 1.9 fold.

For B6, the “Fold-improvement with respect to Ig-1A” value was 2 fold.

For B4, the “Fold-improvement with respect to Ig-1A” value amounted to 1 fold.

Turning to B7, the “Fold-improvement with respect to Ig-1A” value is 3.5 fold.

The target is the same in a further assay. The assay can be described thus: SPR Protocol A: IgG captured by anti-human Fc, VEGF-D dimer as analyte. The procedure:
as §4, §5
Consider B5, for which the Kd was 364 pM, the koff came out at 0.00019 s⁻¹ and the kon came to 530000 M⁻¹ s⁻¹.

Take B6: the Kd turned out to be 342 pM, the koff is roughly 0.00018 s⁻¹ and the on-rate (kon) worked out at 510000 M⁻¹ s⁻¹.

For B4, the Kd was 699 pM, the koff is 0.00039 s⁻¹ and the kon came to 560000 M⁻¹ s⁻¹.

Turning to B7, the Kd came to 201 pM, the koff was 7.7e-05 s⁻¹ and the kon is 390000 M⁻¹ s⁻¹.
